EC50 data for one molecule are collected here from US20210246218A1 (LYVGEN BIOPHARMA SUZHOU, published 2021).

The assay concerns the target T1, Ly052.
T1 chain: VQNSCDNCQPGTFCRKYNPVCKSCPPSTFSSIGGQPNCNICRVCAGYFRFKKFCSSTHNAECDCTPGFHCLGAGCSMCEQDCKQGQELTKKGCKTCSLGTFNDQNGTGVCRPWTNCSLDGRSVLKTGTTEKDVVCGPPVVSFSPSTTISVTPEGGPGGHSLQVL
As to the kind of experiment: ELISA, clone 3712-IgG1v coated, CD137 protein titrated (EC50 is a concentration of the CD137 protein); curve rises only above about 1000 ng/mL to about 0.61 at 100000 ng/mL, no plateau seen. How it is done:
The plate was decanted and washed once; assay diluent was added 200 μL/well. After one-hour incubation at room temperature, the plate was washed with PBST one time. CD137 receptor human/mouse chimeras were diluted in assay diluent to 100 or 10 μg/mL, and then a 4-fold serial dilution in assay diluent for 11 points to final concentrations of 100000, 25000, 6250, 1562.5, 390.63, 97.66, 24.41, 6.10, 1.53, 0.38 and 0.095 ng/mL or 10000, 2500, 625, 156.25, 39.06, 9.77, 2.44, 0.61, 0.15, 0.038 and 0.0095 ng/mL. The diluted CD137 receptor was added to the assay plate, 50 μL/well, in duplicate. The plate was incubated one hour at room temperature and then washed three times with PBST. Goat anti-human IgG-H+L HRP conjugated at 1:100,000 20 dilution was added to the plate at 100 μL/well. The plate was then incubated one hour at room temperature followed by washing with PBST four times. The TMB substrate solution was added at 100 μL/well. The color was allowed to develop for 15 minutes, and was stopped with 100 μL/well 2N H2SO4. Absorbance at 450 nm and 620 nm was determined by a Tecan F200 Pro reader.

B1: Clone 3712-IgG1v (IgG1v/kappa) (antibody)
heavy: QVQLVQSGAEVKKPGASVKVSCKASGYTFAGFEMHWVRQAPGQGLEWMGAIDPKTGGTDYNQKFKDRVTMTRDTSISTAYMELSRLRSDDTAVYYCARDLGYFDVWGQGTLVTVSSASTKGPSVFPLAPSSKSTSGGTAALGCLVKDYFPEPVTVSWNSGALTSGVHTFPAVLQSSGLYSLSSVVTVPSSSLGTQTYICNVNHKPSNTKVDKKVEPKSCDKTHTCPPCPAPELLGPSVFLFPPKPKDTLMISRTPEVTCVVVDVEHEDPEVKFNWYVDGVEVHNAKTKPREEQYNSTYRVVSVLTVLHQDWLNGKEYKCKVSNKALPAPIEKTISKAKGQPREPQVYTLPPSREEMTKNQVSLTCLVKGFYPSDIAVEWESNGQPENNYKTTPPVLDSDGSFFLYSKLTVDKSRWQQGNVFSCSVMHEALHNHYTQKSLSLSPGK
light: DIQMTQSPSSLSASVGDRVTITCRASQDIRSNLNWYQQKPGGAVKLLIYYTSRLHSGVPSRFSGSGSGTDYTLTISSLQPEDFATYFCQQSEKLPRTFGGGTKVEIRRTVAAPSVFIFPPSDEQLKSGTASVVCLLNNFYPREAKVQWKVDNALQSGNSQESVTEQDSKDSTYSLSSTLTLSKADYEKHKVYACEVTHQGLSSPVTKSFNRGEC
notes: copies: 2 + 2
One may read the EC50 as the concentration needed to bring the measured effect to its halfway point. High values mean lower potency in that assay, low ones higher potency in that assay. On to B1, for which the EC50 was determined as 29.5 µg/mL.
